Columns and labels:
[1] = target: the molecule itself; test: cryo-EM structure; Orai_(H206A) in amphipol A8-35 combined with 19B5 Fab at a molar ratio of 0.78:1 (Fab to Orai monomer), 5 mM CaCl2, 150 mM NaCl, 20 mM Tris pH 8.5, on ice 30 min; single particle analysis
[2] = target: T1, Orai_(H206A) (Drosophila melanogaster Orai, amino acids 133-341, with C224S, C283T and H206A) (Drosophila melanogaster, UniProt Q9U6B8, C224S | C283T | H206A); test: as above; conditions: both partners purified
T1 construct: construct identical to the one of Hou et al., 2018; Hexameric channel; The atomic model holds amino acids 156-305 except 217-239; also called H206A Orai; purified Orai_(H206A)

[3] = target: T2, wild-type Orai (amino acids 120-351) with N-terminal mCherry tag (Drosophila melanogaster, UniProt Q9U6B8); test: live-cell ELISA; intact HEK293 cells transfected with mCherry-tagged Orai constructs or vector; purified 19B5 IgG1 1 uM, 20 min, room temperature; HRP-conjugated secondary antibody, TMB, absorbance at 450 nm; conditions: one partner purified
T2 construct: Orai, Drosophila melanogaster, amino acids 120-351; Construct reported in Hou et al., 2018; vector modified from pNGFP-EU; also called Orai-mCherry; source: HEK293, transfected, on intact cells; not shown: mCherry, N-terminal, kept
T2 sequence (Q9U6B8 120-351): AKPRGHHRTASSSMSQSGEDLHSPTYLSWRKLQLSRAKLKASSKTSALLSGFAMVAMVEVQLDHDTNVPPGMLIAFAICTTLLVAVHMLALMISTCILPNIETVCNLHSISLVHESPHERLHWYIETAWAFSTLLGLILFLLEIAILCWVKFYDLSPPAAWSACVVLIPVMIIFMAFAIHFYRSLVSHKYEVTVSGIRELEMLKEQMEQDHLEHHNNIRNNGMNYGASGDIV

B1: Orai_(H206A) (Drosophila melanogaster Orai, amino acids 133-341, with C224S, C283T and H206A) (domain or fragment, UniProt Q9U6B8 133-341, looked up)
chain: MSQSGEDLHSPTYLSWRKLQLSRAKLKASSKTSALLSGFAMVAMVEVQLDHDTNVPPGMLIAFAICTTLLVAVAMLALMISTCILPNIETVSNLHSISLVHESPHERLHWYIETAWAFSTLLGLILFLLEIAILCWVKFYDLSPPAAWSATVVLIPVMIIFMAFAIHFYRSLVSHKYEVTVSGIRELEMLKEQMEQDHLEHHNNIRNNG
notes: construct identical to the one of Hou et al., 2018; Hexameric channel; The atomic model holds amino acids 156-305 except 217-239; also called H206A Orai; purified Orai_(H206A)
**Q.** B1 was tested. Which “stoichiometry N” value [1] did it give?
**A.** The value was 6 subunits per channel.

B2: 19B5 Fab antibody fragment (Fab, V domains shown)
VH: EVQLVESGGGLVQPKGSLKLSCAASGFTFNTYAMHWVRQAPGKGLEWVARIRTKSNNYATYYADSVKDRFTISRDDSQSMLYLQMNNLKTEDTAMYYCVRQKYGNYFDYWGQGTTLTVSS
VL: DVVMTQSQKFMSTSVGDRVSVTCKASQNVGINVAWYQQKPGQSPKALINSASYRNSGVPDRFTGGGSGTDFTLTINNVQSEDLAEYFCQQCNSYPLTFGAGTKLELR
notes: the deposited model PDB 7KR5 holds the variable domains; mouse IgG1; Fab of the mouse monoclonal IgG1 19B5; source: IgG from mouse hybridoma cells, purified by ion exchange, cleaved with papain; Fab purified (Mono S, SEC)
**Q.** B2 was tested. Which “stoichiometry N” value [2] did it give?
**A.** Its value is at most 3 Fabs per channel.

B3: monoclonal antibody 19B5 (mouse IgG1) (antibody, V domains shown)
VH: B2 VH
VL: B2 VL
notes: as the heavy chain of m2 (variable domain in PDB 7KR5), whole mouse IgG1 heavy chain; as the light chain of m2 (variable domain in PDB 7KR5); IgG1; also called 19B5 antibody; Drosophila Orai-19B5 (mouse monoclonal); source: mouse hybridoma cells, purified by ion exchange chromatography
**Q.** Does B3 bind [3]?
**A.** Result: binds

— publication PMC7723414, “Cryo-EM structure of the calcium release-activated calcium channel Orai in an open conformation” (eLife, 2020)
